Patent publication US20180328929A1 (BIOMERIEUX, published 2018)

Experiments:
[1] = molecular target: the molecule itself; experiment: SDS-PAGE, non-heated (self-association)
[2] = molecular target: the molecule itself; experiment: SDS-PAGE (self-association)

B1: ORF2-MUT (ORF2 amino acids 394-660 with cysteines 627, 630 and 638 changed to serine, N-terminal 8-his tag) (other)
chain: HHHHHHHHQLFYSRPVVSANGEPTVKLYTSVENAQQDKGIAIPHDIDLGESRVVIQDYDNQHEQDRPTPSPAPSRPFSVLRANDVLWLSLTAAEYDQSTYGSSTGPVYVSDSVTLVNVATGAQAVARSLDWTKVTLDGRPLSTTQQYSKTFFVLPLRGKLSFWEAGTTKAGYPYNYNTTASDQLLVENAAGHRVAISTYTTSLGAGPVSISAVAVLAPHSALALLEDTMDYPARAHTFDDFSPESRPLGLQGSAFQSTVAELQRLKMKVGKTREL
notes: Made in E. coli; also called p-ORF2-MUT; construction according to the invention
Does B1 bind [1]?
Result: binds

B2: ORF2-REF (ORF2 amino acids 394-660 of hepatitis E virus isolate Human/China/HeBei/1987, N-terminal 8-his tag) (other)
chain: HHHHHHHHQLFYSRPVVSANGEPTVKLYTSVENAQQDKGIAIPHDIDLGESRVVIQDYDNQHEQDRPTPSPAPSRPFSVLRANDVLWLSLTAAEYDQSTYGSSTGPVYVSDSVTLVNVATGAQAVARSLDWTKVTLDGRPLSTTQQYSKTFFVLPLRGKLSFWEAGTTKAGYPYNYNTTASDQLLVENAAGHRVAISTYTTSLGAGPVSISAVAVLAPHSALALLEDTMDYPARAHTFDDFCPECRPLGLQGCAFQSTVAELQRLKMKVGKTREL
notes: Made in E. coli, dissolved from inclusion bodies in urea, Ni-NTA purified, dialyzed; Heterogeneous: covalent dimers (major form), non-covalent dimers, high-molecular-weight forms and aggregates; also called p-ORF2.1 polypeptide
Does B2 bind [2]?
Result: binds
